According to US20050214212A1:

Tests used:
[1] = biological target: CD44v6 (human CD44 variant isoform containing exon v6) on human tumour cells (human) (UniProt P16070); experiment: immunoreactivity assay on fixed UM-SCC-11B cells, linear extrapolation to infinite antigen excess, experiment 2
[2] = biological target: CD44v6 (human CD44 variant isoform containing exon v6) on human tumour cells (human) (UniProt P16070); experiment: immunoreactivity assay, 131I-labelled MAb on glutaraldehyde-fixed UM-SCC-11B cells, experiment 2
[3] = biological target: CD44v6 (human CD44 variant isoform containing exon v6) on human tumour cells (human) (UniProt P16070); experiment: immunoreactivity assay, 186Re-MAG3-labelled MAb on fixed UM-SCC-11B cells
[4] = biological target: CD44v6 (human CD44 variant isoform containing exon v6) on human tumour cells (human) (UniProt P16070); experiment: immunoreactivity assay of clinical 99mTc-/186Re-MAG3-labelled BIWA 4 batches on fixed UM-SCC-11B cells
[5] = biological target: glutathione-S-transferase fusion protein containing domains v3-v10 of human CD44 (human) (UniProt P16070); experiment: SPR (BIAcore 2000), GST/CD44v3-v10 immobilised on CM5
[6] = biological target: CD44v6 (human CD44 variant isoform containing exon v6) on human tumour cells (human) (UniProt P16070); experiment: immunoreactivity assay on fixed UM-SCC-11B cells, linear extrapolation to infinite antigen excess, experiment 3
[7] = biological target: glutathione-S-transferase fusion protein containing domains v3-v10 of human CD44 (human) (UniProt P16070); experiment: ratio of affinities from SPR on GST/CD44v3-v10
[8] = biological target: CD44v6 (human CD44 variant isoform containing exon v6) on human tumour cells (human) (UniProt P16070); experiment: immunoreactivity assay, 131I-labelled MAb on glutaraldehyde-fixed UM-SCC-11B cells, experiment 3
[9] = biological target: glutathione-S-transferase fusion protein containing domains v3-v10 of human CD44 (human) (UniProt P16070); experiment: SPR (BIAcore 2000), GST/CD44v3-v10 immobilised on CM5, MAb 8-67 nM injected
[10] = biological target: CD44v6 (human CD44 variant isoform containing exon v6) on human tumour cells (human) (UniProt P16070); experiment: immunoreactivity assay, 125I-labelled MAb on glutaraldehyde-fixed UM-SCC-11B cells, experiment 3

glutathione-S-transferase fusion protein containing domains v3-v10 of human CD44 (human), sequence (P16070 267-604): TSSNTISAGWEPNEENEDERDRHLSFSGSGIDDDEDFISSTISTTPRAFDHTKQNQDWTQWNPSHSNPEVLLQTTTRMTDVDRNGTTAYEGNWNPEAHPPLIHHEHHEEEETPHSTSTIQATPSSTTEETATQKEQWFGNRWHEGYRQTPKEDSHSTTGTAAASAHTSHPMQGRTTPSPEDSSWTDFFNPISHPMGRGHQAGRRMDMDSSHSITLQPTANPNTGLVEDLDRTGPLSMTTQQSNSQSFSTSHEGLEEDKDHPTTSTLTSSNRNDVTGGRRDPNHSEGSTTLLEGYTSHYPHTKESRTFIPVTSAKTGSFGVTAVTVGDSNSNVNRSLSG

Row | Binding Extrapolated (%) (immunoreactive fraction) [1] | Binding to 5 × 10^6 cells (%) [2] [%] | immunoreactive fraction [3] [%] | immunoreactive fraction [4] [%] | Kd relative to murine BIWA 1 [5] | Binding Extrapolated (%) (immunoreactive fraction) [6] | fold lower affinity than cMAb BIWA 2 [7] [fold] | fold lower affinity than hMAb BIWA 8 [7] [fold] | Binding to 5 × 10^6 cells (%) [8] [%] | Kd [9] [nM] | koff [9] [s⁻¹] | kon [9] [M⁻¹ s⁻¹] | Binding to 5 × 10^6 cells (%) [10] [%] | Binder
1 | 82.3 | 77.4 | > 75 | > 80 | 10.5 | 74.5 | 14 | 4 | 77.3 | 3.4 | 0.00022 | 65000 | – | hMAb BIWA 4 (bivatuzumab), humanised CDR-grafted antibody without framework modifications (antibody, human IgG1, kappa, V domains shown) VH: EVQLVESGGGLVKPGGSLRLSCAASGFTFSSYDMSWVRQAPGKGLEWVSTISSGGSYTYYLDSIKGRFTISRDNAKNSLYLQMNSLRAEDTAVYYCARQGLDYWGRGTLVTVSS VL: EIVLTQSPATLSLSPGERATLSCSASSSINYIYWYQQKPGQAPRLLIYLTSNLASGVPARFSGSGSGTDFTLTISSLEPEDFAVYYCLQWSSNPLTFGGGTKVEIKR
2 | – | – | > 75 | – | 2.6 | 92.1 | – | – | – | 0.84 | 6.3e-05 | 75000 | 91.8 | hMAb BIWA 8, humanised CDR-grafted antibody with framework modifications (antibody, human IgG1, kappa, V domains shown) VH: EVQLVESGGGLVKPGGSLRLSCAASGFTFSSYDMSWVRQAPGKGLEWVSTISSGGSYTYYLDSIKGRFTISRDNAKNSLYLQMNSLRAEDTAVYYCARQGLDYWGRGTLVTVSS VL: EIVLTQSPATLSLSPGERATLSCSASSSINYIYWLQQKPGQAPRILIYLTSNLASGVPARFSGSGSGTDFTLTISSLEPEDFAVYYCLQWSSNPLTFGGGTKVEIKR
